Laboratory results taken from patent US7087392B2, “Antiproliferative SgK reagents and methods” (The Regents of the University of California, priority 1999, dated 2006).

Legend:
mammary epithelial cells = assay: Co-staining for ectopically expressed Sgk and apoptotic cells (TUNEL fluorescence assay); format: cell-based; details: after hyperosmotic stress, ectopic expression
mammary tumor cells = assay: Transient cell foci growth assay of transfected mammary tumor cells; format: cell-based; details: transfected expression vector, G418 selection
Source text: Functional evidence for a direct role of sgk in the glucocorticoid anti-proliferative pathway. In both the Con8 mammary epithelial tumor cells (from which Sgk was originally cloned) as well as human MCF-7 breast cancer cells (which were originally derived from a pleural effusion of a metastatic human breast adenocarcinoma) glucocorticoids induce a G1 block in cell cycle progression and strongly stimulate sgk transcript and protein production. […] To initially test whether Sgk has an anti-proliferative function and perhaps mediates the glucocorticoid growth inhibitory response, the full length rat or human wild type sgk cDNA was inserted downstream of the cytomegalovirus (CMV) promoter in an expression vector that also encodes the neomycin resistance gene. […] Transfection competent cells were selected in 0.5 mg/ml of the G418 neomycin derivative for two weeks.
Expression vectors encoding several point mutants or truncations of Sgk were transfected into the mammary tumor cells and cell growth monitored by the cell foci assay.
Transient transfection and rapid screen of the sgk expression vectors for the anti-proliferative response in rodent and human mammary tumor cells. A transient cell foci growth assay is employed to rapidly screen the various Sgk constructs to define the domains that mediate the anti-proliferative response in rat and human mammary tumor cells using our optimized conditions. The advantage of this assay is that many different mutant Sgk expression vectors can be simultaneously compared for their growth inhibitory effects. Also, this assay can be used to rapidly assess the proliferative effects of combinations of Sgk and its interacting proteins or substrates. Populations of human MCF-7 breast cancer cells or rat Con8 mammary tumor cells are transfected by the lipofectin transfection procedures and cultured in normally cytotoxic concentrations (750 μg/ml) of the G418 neomycin derivative to recover transfection competent cells. Approximately 5000 transfected cells are cultured as colonies on plastic, and after one to two weeks are fixed and stained in crystal violet/formalin to visualize the cell colonies. The effects on cell proliferation are quantitated by simply counting the resulting cell colonies or by scanning the total cell density on each plate. To provide a control for the fidelity of the cell foci assays, in each experiment, cells transfected with the control vectors (no Sgk sequences) are treated with or without 1 μM dexamethasone because the cells are growth suppressed by this synthetic glucocorticoid. […]

B1: K127M: Sgk with lysine 127 in the ATP binding domain substituted with methionine; kinase dead (protein, UniProt O00141 1-431, looked up, variant K127M)
Serine/threonine-protein …: MTVKTEAAKGTLTYSRMRGMVAILIAFMKQRRMGLNDFIQKIANNSYACKHPEVQSILKISQPQEPELMNANPSPPPSPSQQINLGPSSNPHAKPSDFHFLKVIGKGSFGKVLLARHKAEEVFYAVMVLQKKAILKKKEEKHIMSERNVLLKNVKHPFLVGLHFSFQTADKLYFVLDYINGGELFYHLQRERCFLEPRARFYAAEIASALGYLHSLNIVYRDLKPENILLDSQGHIVLTDFGLCKENIEHNSTTSTFCGTPEYLAPEVLHKQPYDRTVDWWCLGAVLYEMLYGLPPFYSRNTAEMYDNILNKPLQLKPNITNSARHLLEGLLQKDRTKRLGAKDDFMEIKSHVFFSLINWDDLINKKITPPFNPNVSGPNDLRHFDPEFTEEPVPNSIGKSPDSVLVTASVKEAAEAFLGFSYAPPTDSFL
Mammary epithelial cells
  correlation between Sgk positive and TUNEL positive cells: ~55%
Mammary tumor cells
  reduction in number of cell foci compared to the vector control: ~2.5 fold
